A word on the solubility: it is the dissolved amount per volume that the medium holds. Low values mean a poorly soluble substance, high ones a readily soluble substance.

SMILES strings stand for the structures.

The nature of series [1]: Small animal PET whole body distribution of 68Ga-labeled polypeptide. The settings on record: rat, after intravenous injection, PET over […]. Format: in vivo. The method, then:
The labeling mixture was incubated at 90° C. for 15 min before cooling, and the labeled protein was isolated by size exclusion purification on a NAP-5 column eluted with physiologically buffered saline.
A rat (277 g) was anesthetized with isoflurane (initially 5%, then 2% blended with 7:3 air/O2), controlled by an E-Z vaporizer using Microflex non-rebreather masks from Euthanex Corporation, and was kept on a heating pad (37° C.) while lying within a microPET Focus120 system (Siemens, CTI Concorde Microsystems). ^68Ga-PEP08296, 33 MBq, was dispensed in a syringe, diluted with saline to 0.5 ml and injected via the tail vein. Data were acquired from the whole body by moving the bed in a constant bed motion protocol for 1.5 h. Data were processed with MicroPET Manager and corrected for randoms, dead time and decay. Images were reconstructed by standard 2D filtered back projection using a ramp filter and evaluated using Inveon Research Workplace (Siemens Medical Solutions) software.

Series [2] deals with IgG molecules present in normal human sera. As to the kind of experiment: Serum response analysis: ELISA of human serum IgG binding to albumin binding polypeptides. The settings on record: 126 positive sera diluted 50 times; polypeptide 2 μg/ml on albumin coated plates. The method, then: Each serum sample was tested as a singlet.
Series [3] has as its system CD3+ CD4+ T cells in peripheral blood mononuclear cells (PBMC).
The nature of another series: physchem. Format: physicochemical. The method, then: Amicon Ultra centrifugal filter units, cut off of 3 kDa, (Millipore, Cat. No. UFC800324) were prerinsed with 2 ml NaPi buffer by centrifugation at 4000 g for 20 min in a swinging bucket rotor centrifuge (Multifuge, Heraeus). […] A 25 μl sample was removed (UF sample 1) for further analysis and the rest of the sample was transferred to a second centrifugal filter unit. The centrifugation and sample removal were repeated three times with spinning times of 8, 9 and 20 min respectively (UF sample 2, 3 and 4 respectively). Absorbance readings were performed using a NANODROP ND-1000 Spectrophotometer and by diluting UF samples 1-4 in NaPi buffer 2, 4, 6 and 12 times respectively. The concentrations were calculated using the extinction coefficient 1 Abs 280=1.955 mg/ml. Gel filtration was performed on a 1100 HPLC system (Agilent Technologies) using a Superdex75 10/300 GL column (GE Healthcare) which had been equilibrated in NaPi buffer. 10 μl of each UF sample were applied to the column; NaPi buffer was used as running buffer and the flow rate was 0.5 ml/min. A chromatogram of the molecular weight standard ovalbumin (GE Healthcare), injected at a concentration of 5 mg/ml was collected as well. Concentrations were determined by integrating the area under the curve.

For the molecule `CC[C@H](C)[C@H](NC(=O)[C@H](C)NC(=O)[C@H](CC(=O)O)NC(=O)[C@H](CCCCN)NC(=O)[C@H](CC(C)C)NC(=O)[C@H](C)NC(=O)[C@H](CCC(=O)O)NC(=O)[C@@H](NC(=O)CNC(=O)[C@H](CCC(=O)O)NC(=O)[C@@H](NC(=O)[C@@H](NC(=O)[C@H](CCCCN)NC(=O)[C@H](C)NC(=O)[C@H](CCCCN)NC(=O)[C@H](CC(=O)O)NC(=O)[C@@H](NC(=O)[C@H](CC(C)C)NC(=O)[C@H](CCCNC(=N)N)NC(=O)[C@H](CCCCN)NC(=O)[C@H](Cc1ccc(O)cc1)NC(=O)[C@H](Cc1ccccc1)NC(=O)[C@H](CC(=O)O)NC(=O)[C@H](CO)NC(=O)[C@@H](NC(=O)CNC(=O)[C@H](Cc1ccc(O)cc1)NC(=O)[C@H](CSC1CC(=O)N(CCNC(=O)CN2CCN(CC(=O)O)CCN(CC(=O)O)CCN(CC(=O)O)CC2)C1=O)NC(=O)[C@H](CC(=O)O)NC(=O)[C@H](CC(C)C)NC(=O)[C@H](CCC(=O)O)NC(=O)[C@H](C)NC(=O)[C@H](CC(N)=O)NC(=O)[C@H](C)NC(=O)[C@H](C)NC(=O)[C@H](CCC(=O)O)NC(=O)[C@H](CCCCN)NC(=O)[C@H](C)NC(=O)[C@H](CCC(=O)O)NC(=O)[C@H](C)NC(=O)[C@H](CC(C)C)NC(=O)[C@H](CO)NC(=O)CN)C(C)C)[C@@H](C)CC)[C@@H](C)O)C(C)C)C(C)C)C(=O)N[C@@H](CC(C)C)C(=O)N[C@@H](C)C(=O)N[C@@H](C)C(=O)N[C@@H](CC(C)C)C(=O)N1CCC[C@H]1C(=O)NCC(=O)O` (single isomer, unassigned) [^68Ga-PEP08296, metal not drawn], the plasma clearance entry in series [1] is on record as “very slow”. For `CC[C@H](C)[C@H](NC(=O)[C@H](Cc1c[nH]cn1)NC(=O)[C@H](CC(C)C)NC(=O)[C@H](CCCCN)NC(=O)[C@H](CC(C)C)NC(=O)[C@H](C)NC(=O)[C@H](CCC(=O)O)NC(=O)[C@@H](NC(=O)CNC(=O)[C@H](CCC(=O)O)NC(=O)[C@@H](NC(=O)[C@@H](NC(=O)[C@H](CCCCN)NC(=O)[C@H](C)NC(=O)[C@H](CCCCN)NC(=O)[C@H](CC(N)=O)NC(=O)[C@@H](NC(=O)[C@H](CC(C)C)NC(=O)[C@H](CCCNC(=N)N)NC(=O)[C@H](CCCCN)NC(=O)[C@H](Cc1ccc(O)cc1)NC(=O)[C@H](Cc1ccccc1)NC(=O)[C@H](CC(=O)O)NC(=O)[C@H](CO)NC(=O)[C@@H](NC(=O)CNC(=O)[C@H](Cc1ccc(O)cc1)NC(=O)[C@H](CCCCN)NC(=O)[C@H](CC(=O)O)NC(=O)[C@H](CC(C)C)NC(=O)[C@H](CCC(=O)O)NC(=O)[C@H](CCCNC(=N)N)NC(=O)[C@H](CC(N)=O)NC(=O)[C@H](C)NC(=O)[C@H](CC(C)C)NC(=O)[C@@H](NC(=O)[C@H](CCCCN)NC(=O)[C@H](C)NC(=O)[C@H](CCC(=O)O)NC(=O)[C@H](C)NC(=O)[C@H](CC(C)C)NC(=O)[C@H](CO)NC(=O)[C@H](CO)NC(=O)CN)C(C)C)C(C)C)[C@@H](C)CC)[C@@H](C)O)C(C)C)C(C)C)C(=O)N[C@@H](CC(C)C)C(=O)N[C@@H](C)C(=O)N[C@@H](C)C(=O)N[C@@H](CC(C)C)C(=O)N1CCC[C@H]1C(=O)O` [PEP06923], the “reactivity with IgG in human sera (average OD-value, percentage of sera with IgG binding)” value in series [2] is “highest average OD-value and the highest percentage of serum with IgG binding”.

As to `CC[C@H](C)[C@H](NC(=O)[C@H](C)NC(=O)[C@H](CC(=O)O)NC(=O)[C@H](CCCCN)NC(=O)[C@H](CC(C)C)NC(=O)[C@H](C)NC(=O)[C@H](CCC(=O)O)NC(=O)[C@@H](NC(=O)CNC(=O)[C@H](CCC(=O)O)NC(=O)[C@@H](NC(=O)[C@@H](NC(=O)[C@H](CCCCN)NC(=O)[C@H](C)NC(=O)[C@H](CCCCN)NC(=O)[C@H](CC(=O)O)NC(=O)[C@@H](NC(=O)[C@H](CC(C)C)NC(=O)[C@H](CCCNC(=N)N)NC(=O)[C@H](CCCCN)NC(=O)[C@H](Cc1ccc(O)cc1)NC(=O)[C@H](Cc1ccccc1)NC(=O)[C@H](CC(=O)O)NC(=O)[C@H](CO)NC(=O)[C@@H](NC(=O)CNC(=O)[C@H](Cc1ccc(O)cc1)NC(=O)[C@H](CO)NC(=O)[C@H](CC(=O)O)NC(=O)[C@H](CC(C)C)NC(=O)[C@H](CCC(=O)O)NC(=O)[C@H](C)NC(=O)[C@H](CC(N)=O)NC(=O)[C@H](C)NC(=O)[C@H](C)NC(=O)[C@H](CCC(=O)O)NC(=O)[C@H](CCCCN)NC(=O)[C@H](C)NC(=O)[C@H](CCC(=O)O)NC(=O)[C@H](C)NC(=O)[C@H](CC(C)C)NC(=O)CN)C(C)C)[C@@H](C)CC)[C@@H](C)O)C(C)C)C(C)C)C(=O)N[C@@H](CC(C)C)C(=O)N[C@@H](C)C(=O)N[C@@H](C)C(=O)N[C@@H](CC(C)C)C(=O)N1CCC[C@H]1C(=O)O` [PEP07914], the immunogenicity classification entry in series [3] is “non-immunogenic”. The same measure, in the same setting: for `CC[C@H](C)[C@H](NC(=O)[C@H](C)NC(=O)[C@H](CC(=O)O)NC(=O)[C@H](CCCCN)NC(=O)[C@H](CC(C)C)NC(=O)[C@H](C)NC(=O)[C@H](CCC(=O)O)NC(=O)[C@@H](NC(=O)CNC(=O)[C@H](CCC(=O)O)NC(=O)[C@@H](NC(=O)[C@@H](NC(=O)[C@H](CCCCN)NC(=O)[C@H](C)NC(=O)[C@H](CCCCN)NC(=O)[C@H](CC(=O)O)NC(=O)[C@@H](NC(=O)[C@H](CC(C)C)NC(=O)[C@H](CCCNC(=N)N)NC(=O)[C@H](CCCCN)NC(=O)[C@H](Cc1ccc(O)cc1)NC(=O)[C@H](Cc1ccccc1)NC(=O)[C@H](CC(=O)O)NC(=O)[C@H](CO)NC(=O)[C@@H](NC(=O)CNC(=O)[C@H](Cc1ccc(O)cc1)NC(=O)[C@H](CSC1CC(=O)N(CCNC(=O)CN2CCN(CC(=O)O)CCN(CC(=O)O)CCN(CC(=O)O)CC2)C1=O)NC(=O)[C@H](CC(=O)O)NC(=O)[C@H](CC(C)C)NC(=O)[C@H](CCC(=O)O)NC(=O)[C@H](C)NC(=O)[C@H](CC(N)=O)NC(=O)[C@H](C)NC(=O)[C@H](C)NC(=O)[C@H](CCC(=O)O)NC(=O)[C@H](CCCCN)NC(=O)[C@H](C)NC(=O)[C@H](CO)NC(=O)[C@H](C)NC(=O)[C@H](CC(C)C)NC(=O)CN)C(C)C)[C@@H](C)CC)[C@@H](C)O)C(C)C)C(C)C)C(=O)N[C@@H](CC(C)C)C(=O)N[C@@H](C)C(=O)N[C@@H](C)C(=O)N[C@@H](CC(C)C)C(=O)N1CCC[C@H]1C(=O)O` (stereo partly drawn) [PEP07968] the value was “non-immunogenic”. For `CC[C@H](C)[C@H](NC(=O)[C@H](C)NC(=O)[C@H](CC(=O)O)NC(=O)[C@H](CCCCN)NC(=O)[C@H](CC(C)C)NC(=O)[C@H](C)NC(=O)[C@H](CCC(=O)O)NC(=O)[C@@H](NC(=O)CNC(=O)[C@H](CCC(=O)O)NC(=O)[C@@H](NC(=O)[C@@H](NC(=O)[C@H](CCCCN)NC(=O)[C@H](C)NC(=O)[C@H](CCCCN)NC(=O)[C@H](CC(=O)O)NC(=O)[C@@H](NC(=O)[C@H](CC(C)C)NC(=O)[C@H](CCCNC(=N)N)NC(=O)[C@H](CCCCN)NC(=O)[C@H](Cc1ccc(O)cc1)NC(=O)[C@H](Cc1ccccc1)NC(=O)[C@H](CC(=O)O)NC(=O)[C@H](CO)NC(=O)[C@@H](NC(=O)CNC(=O)[C@H](Cc1ccc(O)cc1)NC(=O)[C@H](CO)NC(=O)[C@H](CC(=O)O)NC(=O)[C@H](CC(C)C)NC(=O)[C@H](CCC(=O)O)NC(=O)[C@H](C)NC(=O)[C@H](CC(N)=O)NC(=O)[C@H](C)NC(=O)[C@H](C)NC(=O)[C@H](CCC(=O)O)NC(=O)[C@H](CCCCN)NC(=O)[C@H](C)NC(=O)[C@H](CCC(=O)O)NC(=O)[C@H](C)NC(=O)[C@H](CC(C)C)NC(=O)[C@H](CO)NC(=O)CN)C(C)C)[C@@H](C)CC)[C@@H](C)O)C(C)C)C(C)C)C(=O)N[C@@H](CC(C)C)C(=O)N[C@@H](C)C(=O)N[C@@H](C)C(=O)N[C@@H](CC(C)C)C(=O)N1CCC[C@H]1C(=O)O` [PEP07986], the solubility entry is “more than 42 mg/ml” in the series “physchem” (pH 7.2) and not below 42 mg/mL in “physchem” (pH 7.2, aqueous buffer).

The record behind these values is patent US10329331B2, “Polypeptides” (priority 2010, dated 2019).
